{"source": "paper PMC3459974", "molecular_target": "thioredoxin fused-human artemin protein (Trx-ARTN) (human) (UniProt Q5T4W7)", "experiment": "SEC; Superdex-200 10/300 column; dimeric Trx-ARTN fractions eluted from the CM-sepharose column, from both refolding methods; calibration with protein standards"}
{"substance": "thioredoxin fused-human artemin protein (Trx-ARTN) (from UniProt Q5T4W7 40-220) (natural protein)", "values": [{"measurement": "stoichiometry N", "result": 2}]}
